By Km is commonly meant the substrate concentration at which the rate is half of its maximum.

One protein from ChEMBL document CHEMBL2073913, “Functional multidrug resistance protein (MRP1) lacking the N-terminal transmembrane domain” (J Biol Chem, 1998) can be followed below.

Substrate in the data set: NC(CCC(=O)NC(CNCC(=O)O)CSCCN1C(=O)C=CC1=O)C(=O)O
Put plainly: TP_TRANSPORTER: uptake in membrane vesicles from MRP1-expressing Sf9 cells. The format is functional, cell membranes, Membrane vesicle.

B1: Multidrug resistance-associated protein 1 (Homo sapiens) (protein)
chain: MALRGFCSADGSDPLWDWNVTWNTSNPDFTKCFQNTVLVWVPCFYLWACFPFYFLYLSRHDRGYIQMTPLNKTKTALGFLLWIVCWADLFYSFWERSRGIFLAPVFLVSPTLLGITMLLATFLIQLERRKGVQSSGIMLTFWLVALVCALAILRSKIMTALKEDAQVDLFRDITFYVYFSLLLIQLVLSCFSDRSPLFSETIHDPNPCPESSASFLSRITFWWITGLIVRGYRQPLEGSDLWSLNKEDTSEQVVPVLVKNWKKECAKTRKQPVKVVYSSKDPAQPKESSKVDANEEVEALIVKSPQKEWNPSLFKVLYKTFGPYFLMSFFFKAIHDLMMFSGPQILKLLIKFVNDTKAPDWQGYFYTVLLFVTACLQTLVLHQYFHICFVSGMRIKTAVIGAVYRKALVITNSARKSSTVGEIVNLMSVDAQRFMDLATYINMIWSAPLQVILALYLLWLNLGPSVLAGVAVMVLMVPVNAVMAMKTKTYQVAHMKSKDNRIKLMNEILNGIKVLKLYAWELAFKDKVLAIRQEELKVLKKSAYLSAVGTFTWVCTPFLVALCTFAVYVTIDENNILDAQTAFVSLALFNILRFPLNILPMVISSIVQASVSLKRLRIFLSHEELEPDSIERRPVKDGGGTNSITVRNATFTWARSDPPTLNGITFSIPEGALVAVVGQVGCGKSSLLSALLAEMDKVEGHVAIKGSVAYVPQQAWIQNDSLRENILFGCQLEEPYYRSVIQACALLPDLEILPSGDRTEIGEKGVNLSGGQKQRVSLARAVYSNADIYLFDDPLSAVDAHVGKHIFENVIGPKGMLKNKTRILVTHSMSYLPQVDVIIVMSGGKISEMGSYQELLARDGAFAEFLRTYASTEQEQDAEENGVTGVSGPGKEAKQMENGMLVTDSAGKQLQRQLSSSSSYSGDISRHHNSTAELQKAEAKKEETWKLMEADKAQTGQVKLSVYWDYMKAIGLFISFLSIFLFMCNHVSALASNYWLSLWTDDPIVNGTQEHTKVRLSVYGALGISQGIAVFGYSMAVSIGGILASRCLHVDLLHSILRSPMSFFERTPSGNLVNRFSKELDTVDSMIPEVIKMFMGSLFNVIGACIVILLATPIAAIIIPPLGLIYFFVQRFYVASSRQLKRLESVSRSPVYSHFNETLLGVSVIRAFEEQERFIHQSDLKVDENQKAYYPSIVANRWLAVRLECVGNCIVLFAALFAVISRHSLSAGLVGLSVSYSLQVTTYLNWLVRMSSEMETNIVAVERLKEYSETEKEAPWQIQETAPPSSWPQVGRVEFRNYCLRYREDLDFVLRHINVTINGGEKVGIVGRTGAGKSSLTLGLFRINESAEGEIIIDGINIAKIGLHDLRFKITIIPQDPVLFSGSLRMNLDPFSQYSDEEVWTSLELAHLKDFVSALPDKLDHECAEGGENLSVGQRQLVCLARALLRKTKILVLDEATAAVDLETDDLIQSTIRTQFEDCTVLTIAHRLNTIMDYTRVIVLDKGEIQEYGAPSDLLQQRGLFYSMAKDAGLV
Consider B1, for which the Km was 155 µM.
